Measured values taken from paper PMC2173048 (The Journal of Cell Biology, 2002).

Molecular target: T1, recombinant Kap121p (yeast, UniProt P32337 1-1089)
T1 sequence (looked up): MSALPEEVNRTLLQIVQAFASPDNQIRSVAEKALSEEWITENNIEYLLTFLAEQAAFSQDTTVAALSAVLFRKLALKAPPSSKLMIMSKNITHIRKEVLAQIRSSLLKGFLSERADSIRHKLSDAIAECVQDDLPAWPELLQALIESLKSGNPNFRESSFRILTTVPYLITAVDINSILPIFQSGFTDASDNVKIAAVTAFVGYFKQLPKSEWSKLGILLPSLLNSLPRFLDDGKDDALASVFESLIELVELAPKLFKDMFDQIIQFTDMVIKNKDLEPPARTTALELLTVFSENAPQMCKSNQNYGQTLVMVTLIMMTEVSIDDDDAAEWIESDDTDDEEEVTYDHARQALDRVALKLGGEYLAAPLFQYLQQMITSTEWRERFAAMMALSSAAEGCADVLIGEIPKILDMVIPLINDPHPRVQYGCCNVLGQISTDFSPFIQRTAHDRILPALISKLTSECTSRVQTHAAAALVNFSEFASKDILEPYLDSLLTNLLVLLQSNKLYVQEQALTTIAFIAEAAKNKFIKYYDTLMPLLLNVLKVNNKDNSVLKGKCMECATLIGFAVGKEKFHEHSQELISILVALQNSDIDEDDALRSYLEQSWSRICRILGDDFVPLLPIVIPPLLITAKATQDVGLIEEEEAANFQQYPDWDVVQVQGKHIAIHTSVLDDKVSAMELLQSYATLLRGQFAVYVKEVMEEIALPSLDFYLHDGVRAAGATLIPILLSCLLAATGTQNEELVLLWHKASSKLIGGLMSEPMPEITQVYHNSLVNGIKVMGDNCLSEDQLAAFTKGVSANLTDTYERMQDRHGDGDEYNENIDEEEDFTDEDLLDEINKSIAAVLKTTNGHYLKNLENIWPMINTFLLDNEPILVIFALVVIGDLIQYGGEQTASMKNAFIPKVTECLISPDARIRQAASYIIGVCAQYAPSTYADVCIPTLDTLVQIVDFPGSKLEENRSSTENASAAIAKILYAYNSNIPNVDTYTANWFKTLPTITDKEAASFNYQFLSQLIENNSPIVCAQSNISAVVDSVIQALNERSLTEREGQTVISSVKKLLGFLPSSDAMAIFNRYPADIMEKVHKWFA
Experiment: pull-down

B1: GST-401–448 (domain or fragment, yeast, UniProt Q03790 401-448, looked up)
chain: RNAEFKVSKNSTSFKNPRRLEIKDGRSLFLRNRGKIHSGVLSSIESDL
Question: Does B1 bind?
Answer: binds
